Laboratory results from patent US8759300.
Each block holds one substance with its values, some of them ahead of it.

Key:
[1] = molecular target: platelet-derived growth factor-BB (PDGF-BB) (human) (UniProt P01127); assay: equilibrium binding
[2] = molecular target: platelet-derived growth factor-BB (PDGF-BB) (human) (UniProt P01127); assay: surface plasmon resonance, kinetic
Target sequence in this assay (P01127 82-190 limits assumed): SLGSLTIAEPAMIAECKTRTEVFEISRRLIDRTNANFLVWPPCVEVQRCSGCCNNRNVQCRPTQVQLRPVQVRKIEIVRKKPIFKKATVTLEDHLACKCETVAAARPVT

[3] = molecular target: transforming growth factor-β1 (TGF-β1) (human) (UniProt P01137); assay: equilibrium binding; equilibrium binding
Target sequence in this assay (P01137 279-390 limits assumed): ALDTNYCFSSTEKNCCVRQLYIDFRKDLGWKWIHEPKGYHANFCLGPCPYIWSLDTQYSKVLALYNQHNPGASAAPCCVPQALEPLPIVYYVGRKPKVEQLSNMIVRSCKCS

[4] = molecular target: platelet-derived growth factor-BB (PDGF-BB) (human) (UniProt P01127); assay: plasmon resonance modulation; plasmon resonance
Target sequence in this assay (P01127 82-190 limits assumed): as the sequence (P01127 82-190 limits assumed) above

[5] = molecular target: transforming growth factor-β1 (TGF-β1) (human) (UniProt P01137); assay: plasmon resonance modulation; plasmon resonance
Target sequence in this assay (P01137 279-390 limits assumed): as the sequence (P01137 279-390 limits assumed) above

[6] = molecular target: vascular endothelial growth factor A (VEGF-A) (human) (UniProt P15692); assay: plasmon resonance modulation; plasmon resonance
[7] = molecular target: transforming growth factor-β1 (TGF-β1) (human) (UniProt P01137); assay: surface plasmon resonance, kinetic; kinetic, plasmon surface resonance
Target sequence in this assay (P01137 279-390 limits assumed): as above

[8] = molecular target: platelet-derived growth factor-BB (PDGF-BB) (human) (UniProt P01127); assay: equilibrium binding to FN adsorbed to a surface or coupled to agarose beads
[9] = molecular target: transforming growth factor-β1 (TGF-β1) (human) (UniProt P01137); assay: as above
[10] = molecular target: platelet-derived growth factor-BB (PDGF-BB) (human) (UniProt P01127); assay: radiolabeled GF binding to intact FN, non linear regression; radiolabeled GF, intact FN
[11] = molecular target: transforming growth factor-β1 (TGF-β1) (human) (UniProt P01137); assay: as above
[12] = molecular target: transforming growth factor-β1 (TGF-β1) (human) (UniProt P01137); assay: equilibrium or kinetic binding, not said which
[13] = molecular target: platelet-derived growth factor-BB (PDGF-BB) (human) (UniProt P01127); assay: method not restated in the sentence (paragraph: plasmon resonance modulation)
Target sequence in this assay (P01127 82-190 limits assumed): as the sequence (P01127 82-190 limits assumed) above

[14] = molecular target: transforming growth factor-β1 (TGF-β1) (human) (UniProt P01137); assay: as above
Target sequence in this assay (P01137 279-390 limits assumed): as the sequence (P01137 279-390 limits assumed) above

[15] = molecular target: platelet-derived growth factor-BB (PDGF-BB) (human) (UniProt P01127); assay: surface plasmon resonance
[16] = molecular target: platelet-derived growth factor-BB (PDGF-BB) (human) (UniProt P01127); assay: method not restated in the sentence
Target sequence in this assay (P01127 82-190 limits assumed): as the sequence (P01127 82-190 limits assumed) above

[17] = molecular target: transforming growth factor-β1 (TGF-β1) (human) (UniProt P01137); assay: method not restated in the sentence
Target sequence in this assay (P01137 279-390 limits assumed): as the sequence (P01137 279-390 limits assumed) above

[18] = molecular target: vascular endothelial growth factor A (VEGF-A) (human) (UniProt P15692); assay: method not restated in the sentence

FNIII12-14, sequence (P02751 other isoform, or with tags, fused parts or gaps limits assumed): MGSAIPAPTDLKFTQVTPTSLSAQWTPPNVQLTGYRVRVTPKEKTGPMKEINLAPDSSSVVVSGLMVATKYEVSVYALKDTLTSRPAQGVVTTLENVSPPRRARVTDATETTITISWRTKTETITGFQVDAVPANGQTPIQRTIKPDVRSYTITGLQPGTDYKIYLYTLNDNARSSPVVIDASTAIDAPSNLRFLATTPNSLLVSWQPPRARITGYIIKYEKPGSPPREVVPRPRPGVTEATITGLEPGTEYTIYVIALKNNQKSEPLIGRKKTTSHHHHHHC
FNIII1-7, sequence (P02751 other isoform, or with tags, fused parts or gaps limits assumed): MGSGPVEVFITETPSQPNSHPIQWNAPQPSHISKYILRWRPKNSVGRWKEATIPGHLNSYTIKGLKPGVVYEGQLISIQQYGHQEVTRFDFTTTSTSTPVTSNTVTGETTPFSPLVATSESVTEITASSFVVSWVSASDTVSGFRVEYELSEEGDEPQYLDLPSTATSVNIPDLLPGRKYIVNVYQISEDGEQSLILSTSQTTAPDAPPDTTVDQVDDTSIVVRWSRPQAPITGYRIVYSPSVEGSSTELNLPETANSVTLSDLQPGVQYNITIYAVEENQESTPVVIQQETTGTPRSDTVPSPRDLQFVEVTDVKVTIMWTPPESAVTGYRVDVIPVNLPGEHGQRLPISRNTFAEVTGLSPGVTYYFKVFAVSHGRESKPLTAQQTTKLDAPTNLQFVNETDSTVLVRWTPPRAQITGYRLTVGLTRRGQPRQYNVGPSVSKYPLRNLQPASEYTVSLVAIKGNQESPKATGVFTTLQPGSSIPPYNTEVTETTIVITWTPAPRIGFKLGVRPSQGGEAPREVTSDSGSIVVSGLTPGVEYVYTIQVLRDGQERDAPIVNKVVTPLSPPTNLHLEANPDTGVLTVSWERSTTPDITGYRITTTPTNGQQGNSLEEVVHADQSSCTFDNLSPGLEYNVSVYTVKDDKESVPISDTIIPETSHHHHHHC
FNIII12-V15 (HV), composite heparinII-binding and variably-spliced IIICS domains of fibronectin, sequence (P02751 other isoform, or with tags, fused parts or gaps limits assumed): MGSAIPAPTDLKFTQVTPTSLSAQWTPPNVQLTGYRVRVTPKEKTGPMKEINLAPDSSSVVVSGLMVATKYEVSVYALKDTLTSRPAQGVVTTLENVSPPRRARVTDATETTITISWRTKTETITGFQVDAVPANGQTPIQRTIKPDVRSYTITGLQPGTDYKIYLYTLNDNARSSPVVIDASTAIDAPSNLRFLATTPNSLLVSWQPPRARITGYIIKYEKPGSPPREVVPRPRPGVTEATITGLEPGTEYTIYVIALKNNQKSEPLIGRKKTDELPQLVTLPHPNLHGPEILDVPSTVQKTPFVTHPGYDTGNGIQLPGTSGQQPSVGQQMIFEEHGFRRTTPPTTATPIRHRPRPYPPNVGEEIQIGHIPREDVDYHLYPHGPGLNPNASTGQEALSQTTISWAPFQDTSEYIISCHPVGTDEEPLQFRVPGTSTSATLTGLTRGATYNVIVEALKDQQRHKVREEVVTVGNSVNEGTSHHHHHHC
IIICS, variably-spliced domain of fibronectin, sequence (P02751 other isoform, or with tags, fused parts or gaps limits assumed): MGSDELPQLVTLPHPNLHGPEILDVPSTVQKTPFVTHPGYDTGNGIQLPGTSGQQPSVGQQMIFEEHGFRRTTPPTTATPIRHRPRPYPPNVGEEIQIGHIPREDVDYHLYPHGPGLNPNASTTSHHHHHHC
FNIII12-15 (H), heparinII-binding domain of fibronectin, sequence (P02751 other isoform, or with tags, fused parts or gaps limits assumed): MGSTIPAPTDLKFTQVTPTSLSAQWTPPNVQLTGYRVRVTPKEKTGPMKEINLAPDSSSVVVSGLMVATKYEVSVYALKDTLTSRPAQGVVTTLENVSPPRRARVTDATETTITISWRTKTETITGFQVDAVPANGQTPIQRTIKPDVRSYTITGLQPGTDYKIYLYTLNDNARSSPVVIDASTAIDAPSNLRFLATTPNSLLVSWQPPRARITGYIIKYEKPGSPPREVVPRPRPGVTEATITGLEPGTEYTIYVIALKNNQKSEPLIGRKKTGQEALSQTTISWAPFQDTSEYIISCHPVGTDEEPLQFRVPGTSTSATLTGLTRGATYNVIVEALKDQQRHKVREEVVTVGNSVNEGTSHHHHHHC
vascular endothelial growth factor A (VEGF-A) (human), sequence (P15692 other isoform, or with tags, fused parts or gaps limits assumed): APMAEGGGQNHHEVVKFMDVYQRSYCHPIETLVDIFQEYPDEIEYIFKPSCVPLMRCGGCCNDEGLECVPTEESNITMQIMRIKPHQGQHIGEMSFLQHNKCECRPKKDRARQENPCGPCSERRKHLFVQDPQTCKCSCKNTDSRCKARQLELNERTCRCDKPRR
FNIII12-13, sequence (P02751 other isoform, or with tags, fused parts or gaps limits assumed): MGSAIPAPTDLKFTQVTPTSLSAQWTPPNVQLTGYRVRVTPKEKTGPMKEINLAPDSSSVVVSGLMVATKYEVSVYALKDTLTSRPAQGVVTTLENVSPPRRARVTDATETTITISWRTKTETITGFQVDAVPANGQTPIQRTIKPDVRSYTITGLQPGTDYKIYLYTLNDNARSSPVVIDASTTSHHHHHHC

Kd [1]: 21 nM | Kd [2]: 17 nM | Kd [3]: 97 nM | Kd [4]: 17 nM | Kd [5]: 2.5 nM | Kd [6]: 0.6 nM | Kd [7]: 25 nM
Substance: FNIII12-V15 (HV), composite heparinII-binding and variably-spliced IIICS domains of fibronectin (from UniProt P02751 1812-2288)

Kd [8]: 49 nM | Kd [9]: 53 nM | Kd [10]: 49 nM | Kd [11]: 53 nM
Substance: intact human plasma fibronectin (FN) (from UniProt P02751 32-2477)

Kd [1]: 35 nM | Kd [12]: 7.6 nM | Kd [13]: 55 nM | Kd [14]: 7.6 nM
Substance: FNIII12-14 (from UniProt P02751 1812-2082)

Kd [1]: 32 nM | Kd [15]: 370 nM | Kd [12]: 6.2 nM
Substance: FNIII1 (from UniProt P02751 610-702)

Kd [1]: 37 nM | Kd [15]: 9.1 nM
Substance: FNIII1-2 (from UniProt P02751 610-812)

Kd [1]: 6.8 nM | Kd [12]: 16 nM | Kd [13]: 6.8 nM | Kd [14]: 16 nM
Substance: FNIII12-15 (H), heparinII-binding domain of fibronectin (from UniProt P02751 1631-1987)

Kd [1]: 350 nM | Kd [16]: 100 nM | Kd [17]: 100 nM | Kd [18]: 100 nM | Kd [12]: 74 nM
Substance: IIICS, variably-spliced domain of fibronectin (from UniProt P02751 2083-2202)

Kd [1]: 75 nM | Kd [2]: 100 nM | Kd [3]: 17 nM | Kd [7]: 18 nM
Substance: FNIII1-7 (from UniProt P02751 610-1266)

Kd [1]: 75 nM
Substance: FNIII12-13 (from UniProt P02751 1812-1992)
